From the supplement of paper PMC9732359
± gives the uncertainty stated by the source.

Test: protein stability index of a GFP-peptide fusion (yeast GPS) (PSI 1-4); higher = more stable; sorted into four equal gates, so the index is relative within each strain
Procedure, shortened: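 Sequencing reads from sorted gates were used to score each peptide. The library consisted of tiled 17-residue yeast protein peptides fused downstream of GFP on a Cherry-expressing plasmid, pooled and carried in yeast. Mid-log cultures in leucine-free medium were split into four equal gates by GFP/Cherry ratio, and each gate's plasmids were PCR-amplified and Illumina-sequenced. The protein stability index adds up, over all gates, the read frequency multiplied by the gate number.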

Sequence	protein stability index (doa10∆)	protein stability index (pdr5∆)	protein stability index (san1∆)	protein stability index (ubr1∆)
DYPDDSGWTPFHIACSV [NAS6]	3.37 ± 0.11	2.28 ± 0.099	2.48 ± 0.12	2.27 ± 0.29
KKIRNVPVRDGVTIEFS [RPL9A]	2.59 ± 0.11	2.55 ± 0.15	2.43 ± 0.16	3.21 ± 0.092
DSMLFVFGFRANKMRQD [SMC4]	2.27 ± 0.072	2.24 ± 0.08	2.08 ± 0.12	2.7 ± 0.057
VLLTFLQDELHKVSSQS [YCS4]	3.54 ± 0.17	3.45 ± 0.2	2.95 ± 0.23	3.27 ± 0.13
WRAHDSSIVAIDWASPE [YGL100W/SEH1]	2.55 ± 0.092	2.8 ± 0.1	2.83 ± 0.078	2.79 ± 0.068
LATLHYQKKQYKDSLAL [RPN6]	1.91 ± 0.28	1.47 ± 0.17	2.62 ± 0.19	2.14 ± 0.23
NINNNINSTKNGKDNNN [MED2]	3.28 ± 0.068	3.26 ± 0.053	3.24 ± 0.045	3.35 ± 0.041
IRPDGRLPHQFRPIEIF [RRP42]	1.84 ± 0.087	1.94 ± 0.084	1.35 ± 0.12	2.16 ± 0.073
IVVLVPKFGVEGLIRLD [DIS3]	2.16 ± 0.07	2.41 ± 0.063	2.31 ± 0.085	2 ± 0.054
QDSNVMPGSQINSPMPQ [SNF2]	3.26 ± 0.2	3.12 ± 0.11	3.32 ± 0.12	3.12 ± 0.17
NDILVLMESEREARRLR [RPS28A]	1.56 ± 0.12	2.94 ± 0.079	2.08 ± 0.16	2.7 ± 0.097
ENGERKLYDAKRYTSEG [YMR129W/POM152]	3.35 ± 0.12	2.92 ± 0.1	2.96 ± 0.1	3.29 ± 0.085
TIGKRRTTTNTTAEPKA [TAF14]	3.07 ± 0.064	3.26 ± 0.042	3.15 ± 0.045	3.2 ± 0.05
MSPLECRNILGVTSLIK [RPP1]	2.23 ± 0.052	1.96 ± 0.054	1.84 ± 0.079	2.08 ± 0.044
VSPTNVMGTPLTNMMSP [PGD1]	2.77 ± 0.1	–	2.92 ± 0.091	3.26 ± 0.093
DEITEDMFEMSDEEENN [SSN2]	3.16 ± 0.099	3.39 ± 0.11	3.25 ± 0.08	3.2 ± 0.075
GSVELSTGDYTFTIQLL [YML103C/NUP188]	2.05 ± 0.084	2.41 ± 0.072	1.89 ± 0.11	2.17 ± 0.051
MPDMNEMMKMMQDPQMQ [SRP54]	3.22 ± 0.19	3.45 ± 0.21	3.5 ± 0.083	3.33 ± 0.084
YHSKRDASTPLRSTENG [RPB2]	3.12 ± 0.1	3.32 ± 0.071	3.12 ± 0.055	3.33 ± 0.05
EVEKAHPIRLYTRYLDR [PRP8]	3.11 ± 0.082	2.51 ± 0.068	2.35 ± 0.078	2.94 ± 0.048
SLDQGDAEEDSQVENRV [SMC4]	–	–	–	2.83 ± 0.17
PLIIVSDGQSRVKDIHL [RET1]	2.88 ± 0.3	3.58 ± 0.24	3.05 ± 0.2	2.79 ± 0.15
VFDLCWNSLMYALQSVK [RRP43]	2 ± 0.062	2.02 ± 0.067	2.04 ± 0.074	1.99 ± 0.051
YGPSFTKRESLNARMFL [SIR2]	1.85 ± 0.068	2.42 ± 0.049	2.22 ± 0.08	1.65 ± 0.036
ELSKEEKERLESLTKEI [SMC3]	3.01 ± 0.13	3.13 ± 0.15	3 ± 0.059	3.17 ± 0.077
NNVKQMVMAGSKGSFIN [RPO21]	1.57 ± 0.091	1.78 ± 0.095	–	1.94 ± 0.068

Sequence	protein stability index (doa10∆)	protein stability index (pdr5∆)	protein stability index (san1∆)	protein stability index (ubr1∆)
FNGLKPLIQNSMRTIMK [PRP8]	2.56 ± 0.091	2.51 ± 0.12	2.15 ± 0.17	2.56 ± 0.15
IDGPKAGVPRQAINLGQ [RPL14A]	3.58 ± 0.14	3.29 ± 0.11	2.69 ± 0.11	3.31 ± 0.1
LNPQVADINKNFLSVIT [RPN2]	1.81 ± 0.065	2.19 ± 0.053	1.98 ± 0.071	1.95 ± 0.053
SSDAFEKLKVNMEKEKD [YIL149C/MLP2]	3.05 ± 0.071	3.19 ± 0.094	3.33 ± 0.057	3.23 ± 0.062
VLVLRGTLEGHNGWVTS [ASC1]	2.75 ± 0.15	2.1 ± 0.14	2.1 ± 0.15	2.76 ± 0.18
LDLANSGDESNVISSKD [YDL116W/NUP84]	3.31 ± 0.09	3.31 ± 0.067	3.25 ± 0.051	3.26 ± 0.063
DQNNATMGEETAKKDMS [SNF12]	3.44 ± 0.082	3.34 ± 0.11	3.21 ± 0.12	3.32 ± 0.09
TDLESLSSGESNEIKVT [SIR4]	2.99 ± 0.13	2.93 ± 0.11	2.69 ± 0.1	2.46 ± 0.071
LEPSGSYWGYKGAATGK [PRE10]	2.37 ± 0.27	–	–	2.37 ± 0.16
GHYQAFIRDELDENKWY [UBP6]	1.49 ± 0.057	1.88 ± 0.047	1.53 ± 0.12	1.85 ± 0.063
EQSKEVGDVVGGALDNP [BRN1]	3.29 ± 0.091	3.54 ± 0.078	3.44 ± 0.057	3.38 ± 0.058
VDSTFQKVSENFEAVFE [SMC3]	3.32 ± 0.088	3.38 ± 0.081	3.42 ± 0.063	3.09 ± 0.048
RLLPINVNKKALGQDTE [MED11]	2.84 ± 0.061	2.96 ± 0.062	2.89 ± 0.035	3.16 ± 0.052
EIKKWTAVAFWSWDIAV [HRT1]	1.23 ± 0.076	1.7 ± 0.073	1.65 ± 0.11	1.36 ± 0.044
RLRALQLYFQKNGAQDL [RRI2]	1.7 ± 0.06	1.95 ± 0.076	1.95 ± 0.087	2.44 ± 0.044
DKLDDDGLIAPGVRVSG [RPB2]	1.65 ± 0.19	2.23 ± 0.1	2.48 ± 0.27	1.71 ± 0.11
PAPSKPVIDYELKEITS [BRR2]	3.15 ± 0.079	3.2 ± 0.081	2.97 ± 0.068	3.1 ± 0.07
DYFFYFLVLYDVKTAEE [NUT1]	1.52 ± 0.043	1.46 ± 0.044	1.62 ± 0.094	1.76 ± 0.04
QTGTKPVLKKKAAFLGS [COR1]	2.99 ± 0.064	3.14 ± 0.085	3.04 ± 0.076	3.16 ± 0.058
LKHLEEMGKLRERDITS [RRI2]	2.76 ± 0.079	2.58 ± 0.11	2.55 ± 0.15	3.16 ± 0.068
TGLVSIRGKILTGTVVS [RPS11A]	2.45 ± 0.052	2.75 ± 0.053	2.58 ± 0.053	2.89 ± 0.038
KIHSILPVMESLDSCTA [YJR042W/NUP85]	2.24 ± 0.09	2.23 ± 0.079	2 ± 0.13	2.24 ± 0.068
ENTPEPDLPALEASYSK [SMC4]	2.36 ± 0.12	2.61 ± 0.091	3.18 ± 0.068	2.99 ± 0.12
DSYIALYEKDIVPSMTH [RET1]	2.5 ± 0.066	2.51 ± 0.07	2.46 ± 0.075	2.65 ± 0.067
NRRLVYSRILKSMGRKC [YCG1]	1.41 ± 0.12	1.17 ± 0.084	1.3 ± 0.2	1.14 ± 0.067
KKLFQKKENLTRDETVS [YML103C/NUP188]	2.65 ± 0.23	3.29 ± 0.12	3.01 ± 0.08	3.3 ± 0.088
